Test results published in patent US20250179163A1 (Sanofi, published 2025).

Key:
Human TGFβ1 [1] = biological target: T1, Human TGFβ1 (human, UniProt P01137 279-390); test: SPR (Biacore T200), TGFβ1 amine-coupled to CM5 chip, Fab injected
T1 construct: also called Transforming Growth Factor-β1

Human TGFβ1 [2] = biological target: T1, Human TGFβ1
Human TGFβ1 [3] = biological target: T1, Human TGFβ1; test: Octet QK384, Fab from conditioned medium captured on anti-Fab-CH1 biosensors, 200 nM TGFβ1; qualitative
Experimental: Conditioned media (CM) was harvested 4 days post-transfection and the Octet QK384 instrument was used to calculate expression level and TGFβ1 binding in a single assay. […] Binding to anti-Fab-CH1 biosensors was measured for 2 min at 1000 rpm and 30° C. plate temperature for quantitation and capture. The sensors were then moved into wells containing 200 nM of TGFβ1 for binding assessment.

T1 sequence (P01137 279-390 limits assumed): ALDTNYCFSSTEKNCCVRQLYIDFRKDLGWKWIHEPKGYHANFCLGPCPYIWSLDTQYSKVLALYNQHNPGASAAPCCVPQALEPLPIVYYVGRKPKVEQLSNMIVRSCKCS

GC1008 Fab
Kd (Human TGFβ1 [1]): 2.9 nM | koff (Human TGFβ1 [1]): 0.00208 s⁻¹ | kon (Human TGFβ1 [1]): 711000 M⁻¹ s⁻¹

GC1008 control (antibody)
IC50 (read off the curve) (Human TGFβ1 [2]): 1 ng/mL

B1: CAT192 A25S Fab (Fab, V domains shown)
VH: EVQLVESGGGVVQPGRSLRLSCAASGFTFSSYGMHWVRQAPGKELEWVAVISYDGSIKYYADSVKGRFTISRDNSKNTLYLQMNSLRAEDTAVYYCARTGEYSGYDTDPQYSWGQGTTVTVSS
VL: EIVLTQSPSSLSASVGDRVTITCRSSQGIGDDLGWYQQKPGKAPILLIYGTSTLQSGVPSRFSGSGSGTDFTLTINSLQPEDFATYYCLQDSNYPLTFGGGTRLEIKR
notes: Control light chain mutant in the Fv; His-tagged HC Fab, HC limits see recheck; also called A25S mutant
binding result (Human TGFβ1 [3]): binds
